Test results reported in patent US7018846 (SCIENCE AND TECHNOLOGY CORPORATION UNM, dated 2006).
No end group written: not given here. *: point of attachment. For = O=C*

Molecular target: T1, C-terminally His-tagged N-formyl peptide receptor (UniProt P21462 1-350)
T1 construct: Expressed in transfected U937 cells; also called C-His FPR; His6 FPR
T1 sequence: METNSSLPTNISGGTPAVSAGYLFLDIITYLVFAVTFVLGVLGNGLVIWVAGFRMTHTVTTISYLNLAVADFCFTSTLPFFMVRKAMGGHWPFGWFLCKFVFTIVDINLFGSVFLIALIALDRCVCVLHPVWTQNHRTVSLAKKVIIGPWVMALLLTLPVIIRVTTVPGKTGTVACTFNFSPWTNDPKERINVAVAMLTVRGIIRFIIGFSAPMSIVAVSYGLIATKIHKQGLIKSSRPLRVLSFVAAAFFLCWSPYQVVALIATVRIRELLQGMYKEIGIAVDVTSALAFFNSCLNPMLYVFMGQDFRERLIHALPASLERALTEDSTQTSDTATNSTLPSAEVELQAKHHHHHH
Test: flow cytometry; fMLFK-FITC on C-His FPR silica particles, optimal receptor input

fluorescent ligand signal to background ratio: ≥ 30 ratio (x:1)
B1: formyl-met-leu-phe-lys-FITC (peptide)
peptide: For-MLFK
modifications: also: FITC label, attachment site not given here
notes: Bought from Peninsula Laboratories; also called fMLFK-FITC; fluorescent formyl peptide
